Data set [1] concerns the target T1, TgApiAT6-1 (Toxoplasma gondii, UniProt A0A125YQS6).
T1 construct: gene ApiAT6-1; HA-tagged TgApiAT6-1 open reading frame expressed in Xenopus laevis oocytes
T1 sequence (A0A125YQS6 1-566): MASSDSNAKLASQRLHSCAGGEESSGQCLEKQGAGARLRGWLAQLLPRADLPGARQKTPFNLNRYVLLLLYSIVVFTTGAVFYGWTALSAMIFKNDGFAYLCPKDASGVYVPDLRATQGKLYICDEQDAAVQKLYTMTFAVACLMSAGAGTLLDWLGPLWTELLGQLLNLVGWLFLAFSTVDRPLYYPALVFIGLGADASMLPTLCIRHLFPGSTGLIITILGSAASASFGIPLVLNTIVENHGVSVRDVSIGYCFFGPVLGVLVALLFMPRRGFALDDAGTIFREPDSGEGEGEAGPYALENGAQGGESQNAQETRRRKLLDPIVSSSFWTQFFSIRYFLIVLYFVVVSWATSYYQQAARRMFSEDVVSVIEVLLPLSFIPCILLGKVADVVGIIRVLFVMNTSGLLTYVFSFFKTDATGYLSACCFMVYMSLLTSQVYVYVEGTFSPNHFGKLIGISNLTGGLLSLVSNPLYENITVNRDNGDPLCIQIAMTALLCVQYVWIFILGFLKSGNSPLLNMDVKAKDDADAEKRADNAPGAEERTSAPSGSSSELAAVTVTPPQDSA
In words: inhibition of […]Arg uptake at […] and trans-stimulation of Arg efflux in Xenopus oocytes. Type of data set: cell-based.

Data set [2] concerns the target T1, TgApiAT6-1. The data set can be described thus: inhibition of […]Arg uptake at […] and trans-stimulation of Arg uptake in Xenopus oocytes. Type of data set: cell-based.
For data set [3], the target named is T1, TgApiAT6-1. In words: radiolabelled uptake in Xenopus oocytes; inhibition of Arg uptake at […]; trans-stimulation. It counts as cell-based.
Substrate in data set [4]: NCCCC[C@H](N)C(=O)O
The data set can be described thus: cells, lysate or membranes. It counts as cell-based, Toxoplasma gondii. The settings on record: same binding site as Arg; competitive with Arg.

Substrate in data set [5]: N=C(N)NCCC[C@H](N)C(=O)O
The data set can be described thus: cells, lysate or membranes. It counts as cell-based, Toxoplasma gondii. Particulars: same binding site as Lys.

Take `N[C@@H](Cc1c[nH]cn1)C(=O)O` [His, histidine]: on TgApiAT6-1 [1], the “inhibition of [14C]Arg uptake at 10 mM and trans-stimulation of Arg efflux in Xe” value was “numerous neutral amino acids including Met, Leu, Phe and His partially inhibited Arg uptake”.
For the molecule `N[C@@H](Cc1ccccc1)C(=O)O` [Phe, phenylalanine], the “inhibition of [14C]Arg uptake at 10 mM and trans-stimulation of Arg uptake in Xe” value against TgApiAT6-1 [2] is “numerous neutral amino acids including Met, Leu, Phe and His partially inhibited Arg uptake”.
As to `CSCC[C@H](N)C(=O)O` [Met, methionine], the “radiolabelled uptake in Xenopus oocytes; inhibition of Arg uptake at 10 mM; tran” value on TgApiAT6-1 [3] was “TgApiAT6-1 also mediated uptake of Arg and some neutral amino acids including Met and Leu”.
For the molecule `CC(C)C[C@H](N)C(=O)O` [Leu, leucine], the “radiolabelled uptake in Xenopus oocytes; inhibition of Arg uptake at 10 mM; tran” value on TgApiAT6-1 [3] is “TgApiAT6-1 also mediated uptake of Arg and some neutral amino acids including Met and Leu”.

B1: TgApiAT6-1 (Toxoplasma gondii ME49) (protein)
chain: MASSDSNAKLASQRLHSCAGGEESSGQCLEKQGAGARLRGWLAQLLPRADLPGARQKTPFNLNRYVLLLLYSIVVFTTGAVFYGWTALSAMIFKNDGFAYLCPKDASGVYVPDLRATQGKLYICDEQDAAVQKLYTMTFAVACLMSAGAGTLLDWLGPLWTELLGQLLNLVGWLFLAFSTVDRPLYYPALVFIGLGADASMLPTLCIRHLFPGSTGLIITILGSAASASFGIPLVLNTIVENHGVSVRDVSIGYCFFGPVLGVLVALLFMPRRGFALDDAGTIFREPDSGEGEGEAGPYALENGAQGGESQNAQETRRRKLLDPIVSSSFWTQFFSIRYFLIVLYFVVVSWATSYYQQAARRMFSEDVVSVIEVLLPLSFIPCILLGKVADVVGIIRVLFVMNTSGLLTYVFSFFKTDATGYLSACCFMVYMSLLTSQVYVYVEGTFSPNHFGKLIGISNLTGGLLSLVSNPLYENITVNRDNGDPLCIQIAMTALLCVQYVWIFILGFLKSGNSPLLNMDVKAKDDADAEKRADNAPGAEERTSAPSGSSSELAAVTVTPPQDSA
notes: HA-tagged TgApiAT6-1 open reading frame expressed in Xenopus laevis oocytes
Consider B1, for which, in data set [4], the K0.5 came to 22.8 µM, the kcat was 0.042 ± 0.004 s⁻¹ and the kcat/Km was 1840 M⁻¹ s⁻¹. Besides, in data set [5], the K0.5 came to 748 µM, the kcat is 0.28 ± 0.1 s⁻¹ and the kcat/Km turned out to be 379 M⁻¹ s⁻¹.
